Laboratory results published in patent publication US20190106510A1 (CELLDEX THERAPEUTICS, published 2019).
Changes are numbered by the printed parent chain.

B1: Hum9 (antibody, V domains shown)
VH: QVQLVQSGAEVKKPGASVKVSCKASGYTFTDYYINWVRQAPGKGLEWIARIYPGSGNTYYNEKFKGRATITADKSTSTAYMELSSLRSEDTAVYFCARGVYYFDYWGQGTTVTVSS
VL: DIVMTQSPSSLSASVGDRVTITCKASQNVRTNVAWYQQKPGKAPKALIYSASYRYSGVPDRFTGSGSGTDFTLTISSLQPEDFADYFCQQYNSYPRTFGGGTKVEIK
B2: Hum14 (antibody, V domains shown)
VH: B1 VH
VL: B1 VL with T63S
B3: Hum13 (antibody, V domains shown)
VH: B1 VH with V20L, I70L, E82Q
VL: B1 VL with T63S
B4: Hum15 (antibody, V domains shown)
VH: B1 VH with A68V
VL: B1 VL with T63S
B5: Hum6 (antibody, V domains shown)
VH: B1 VH with V11L, V20L, R38K, I70L, D73E, E82Q, T91S
VL: B1 VL
B6: Hum12 (antibody, V domains shown)
VH: B1 VH with V20L, R38K, I70L, D73E, E82Q
VL: B1 VL with T63S
B7: Hum20 (antibody, V domains shown)
VH: B1 VH with A68V
VL: B1 VL with A46S, T63S, D85T, F87Y
B8: Hum16 (antibody, V domains shown)
VH: B1 VH with V11L, V20L, R38K, I70L, D73E, E82Q, T91S
VL: B1 VL with A46S, T63S, D85T, F87Y
B9: Hum7 (antibody, V domains shown)
VH: B1 VH with V20L, R38K, I70L, D73E, E82Q
VL: B1 VL
B10: Hum1 (antibody, V domains shown)
VH: B1 VH with V11L, V20L, R38K, I70L, D73E, E82Q, T91S
VL: B1 VL with S10F, P80S
notes: Variable regions cloned into expression vectors for human IgG1 VH chains and human V kappa chains
B11: Hum5 (antibody, V domains shown)
VH: B1 VH with A68V
VL: B1 VL with S10F, P80S
B12: Hum3 (antibody, V domains shown)
VH: B1 VH with V20L, I70L, E82Q
VL: B1 VL with S10F, P80S
B13: Hum2 (antibody, V domains shown)
VH: B1 VH with V20L, R38K, I70L, D73E, E82Q
VL: B1 VL with S10F, P80S
B14: Hum11 (antibody, V domains shown)
VH: B1 VH with V11L, V20L, R38K, I70L, D73E, E82Q, T91S
VL: B1 VL with T63S

These binders were tested against full-length, wild-type human KIT expressed on CHO cells (human, UniProt P10721 26-976) (assay: cell-based or functional assay).
full-length, wild-type human KIT expressed on CHO cells, sequence (P10721 other isoform, or with tags, fused parts or gaps limits assumed): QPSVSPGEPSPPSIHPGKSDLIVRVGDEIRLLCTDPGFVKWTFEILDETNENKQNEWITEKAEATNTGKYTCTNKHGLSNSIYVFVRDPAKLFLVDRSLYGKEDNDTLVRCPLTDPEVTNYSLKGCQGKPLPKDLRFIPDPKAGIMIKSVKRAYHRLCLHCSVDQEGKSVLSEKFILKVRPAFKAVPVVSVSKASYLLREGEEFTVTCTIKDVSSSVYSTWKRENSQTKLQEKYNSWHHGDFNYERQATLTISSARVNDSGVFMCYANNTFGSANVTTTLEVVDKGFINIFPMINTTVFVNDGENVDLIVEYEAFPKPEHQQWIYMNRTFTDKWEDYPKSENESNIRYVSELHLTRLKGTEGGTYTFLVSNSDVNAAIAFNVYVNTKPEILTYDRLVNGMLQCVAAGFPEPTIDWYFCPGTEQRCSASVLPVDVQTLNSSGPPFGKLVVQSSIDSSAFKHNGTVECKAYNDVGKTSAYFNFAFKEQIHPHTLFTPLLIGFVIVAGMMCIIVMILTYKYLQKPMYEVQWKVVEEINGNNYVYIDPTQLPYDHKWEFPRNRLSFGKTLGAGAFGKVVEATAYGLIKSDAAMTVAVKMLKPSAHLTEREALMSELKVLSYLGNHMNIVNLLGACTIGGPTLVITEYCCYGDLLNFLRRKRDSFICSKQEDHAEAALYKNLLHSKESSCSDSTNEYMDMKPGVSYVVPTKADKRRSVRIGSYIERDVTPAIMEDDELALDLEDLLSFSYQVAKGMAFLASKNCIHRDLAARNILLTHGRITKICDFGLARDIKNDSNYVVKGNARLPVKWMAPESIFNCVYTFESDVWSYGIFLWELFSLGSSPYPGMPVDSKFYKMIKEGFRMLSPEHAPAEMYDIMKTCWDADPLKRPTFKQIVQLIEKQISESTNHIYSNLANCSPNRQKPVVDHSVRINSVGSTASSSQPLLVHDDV
For B1, the “Relative blocking activity, assay #3 (96-well): IC50 of inhibition of SCF-induced KIT phosphorylation, normalized to chimeric 37M antibody” value was 1.05 relative to chimeric 37M antibody. B2 was tested, and the “Relative blocking activity, assay #2 (24-well): IC50 of inhibition of SCF-induced KIT phosphorylation, normalized to chimeric 37M antibody” value was 0.94 relative to chimeric 37M antibody. In the case of B3, the “Relative blocking activity, assay #3 (96-well): IC50 of inhibition of SCF-induced KIT phosphorylation, normalized to chimeric 37M antibody” value is reported as 1 relative to chimeric 37M antibody. In the case of B4, the “Relative blocking activity, assay #1 (24-well): IC50 of inhibition of SCF-induced KIT phosphorylation, normalized to chimeric 37M antibody” value is reported as 0.98 relative to chimeric 37M antibody and the “Relative blocking activity, assay #3 (96-well): IC50 of inhibition of SCF-induced KIT phosphorylation, normalized to chimeric 37M antibody” value is reported as 0.99 relative to chimeric 37M antibody.

Each binder was assayed against T1, recombinant KIT D4/D5 (human, UniProt P10721 26-519) (assay: direct binding ELISA, plate-coated recombinant KIT D4/D5; assay #1 (supernatant)).
T1 construct: also called recombinant c-Kit Ig-like domains D4/D5; recombinant polypeptide of the D4/D5 region of human KIT
T1 sequence (P10721 other isoform, or with tags, fused parts or gaps limits assumed): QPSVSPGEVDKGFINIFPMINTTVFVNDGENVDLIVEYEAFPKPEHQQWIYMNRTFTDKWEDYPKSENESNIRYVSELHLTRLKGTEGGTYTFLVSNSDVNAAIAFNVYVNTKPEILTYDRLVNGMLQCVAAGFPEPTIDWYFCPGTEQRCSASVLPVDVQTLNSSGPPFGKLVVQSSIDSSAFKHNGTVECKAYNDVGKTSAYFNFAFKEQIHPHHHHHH
Description: (§1) The binding affinity of the anti-KIT antibodies to the target antigen KIT Ig-like domains D4/D5 was assessed by direct binding ELISA. […] Bound antibody was detected with anti-human Ig-HRP followed by detection using TMB substrate.
B5 was tested, and the Relative binding activity was 1.15 relative to chimeric antibody 37C (normalized EC50). For B6, the Relative binding activity was 1.23 relative to chimeric antibody 37C (normalized EC50). B1 was tested, and the Relative binding activity was 1.08 relative to chimeric antibody 37C (normalized EC50). B7 was tested, and the Relative binding activity was 0.8 relative to chimeric antibody 37C (normalized EC50). With B8 the Relative binding activity was 1.2 relative to chimeric antibody 37C (normalized EC50). In the case of B9, the Relative binding activity is reported as 1.12 relative to chimeric antibody 37C (normalized EC50). With B2 the Relative binding activity was 1.14 relative to chimeric antibody 37C (normalized EC50). With B3 the Relative binding activity was 1.11 relative to chimeric antibody 37C (normalized EC50). With B4 the Relative binding activity was 0.87 relative to chimeric antibody 37C (normalized EC50).

What follows are binders tested against T1, recombinant KIT D4/D5 (assay: direct binding ELISA, plate-coated recombinant KIT D4/D5; assay #3 (purified)).
Description: as §1
B1 was tested, and the Relative binding activity was 0.85 relative to chimeric antibody 37C (normalized EC50). In the case of B2, the Relative binding activity is reported as 0.74 relative to chimeric antibody 37C (normalized EC50). In the case of B4, the Relative binding activity is reported as 0.87 relative to chimeric antibody 37C (normalized EC50).

What follows are binders tested against T1, recombinant KIT D4/D5 (assay: direct binding ELISA, plate-coated recombinant KIT D4/D5; assay #2 (supernatant)).
Description: as §1
With B10 the Relative binding activity was 0.64 relative to chimeric antibody 37C (normalized EC50). With B5 the Relative binding activity was 0.7 relative to chimeric antibody 37C (normalized EC50). For B6, the Relative binding activity was 0.72 relative to chimeric antibody 37C (normalized EC50). B11 was tested, and the Relative binding activity was 0.93 relative to chimeric antibody 37C (normalized EC50). For B12, the Relative binding activity was 0.88 relative to chimeric antibody 37C (normalized EC50). With B1 the Relative binding activity was 1 relative to chimeric antibody 37C (normalized EC50). B13 was tested, and the Relative binding activity was 0.79 relative to chimeric antibody 37C (normalized EC50). B7 was tested, and the Relative binding activity was 0.7 relative to chimeric antibody 37C (normalized EC50). For B8, the Relative binding activity was 1.02 relative to chimeric antibody 37C (normalized EC50). B9 was tested, and the Relative binding activity was 0.8 relative to chimeric antibody 37C (normalized EC50). With B14 the Relative binding activity was 0.74 relative to chimeric antibody 37C (normalized EC50). With B2 the Relative binding activity was 1.03 relative to chimeric antibody 37C (normalized EC50). With B3 the Relative binding activity was 0.78 relative to chimeric antibody 37C (normalized EC50). B4 was tested, and the Relative binding activity was 0.76 relative to chimeric antibody 37C (normalized EC50).
